Results reported in patent US20220016257A1 (Daiichi Sankyo, published 2022).
Residue numbers refer to the chain shown, from its start. Numbers in names are those of the source.

T1: Recombinant Human Cadherin-6 (KCAD)/Fc Chimera (RD-SYSTEMS) (human, UniProt P55285 54-615, limits assumed)
T1 construct: Captured by an anti-histidine antibody; also called human CDH6; the antigen; not shown: Fc portion (and the histidine tag implied by anti-histidine capture) of the bought chimera
T1 sequence: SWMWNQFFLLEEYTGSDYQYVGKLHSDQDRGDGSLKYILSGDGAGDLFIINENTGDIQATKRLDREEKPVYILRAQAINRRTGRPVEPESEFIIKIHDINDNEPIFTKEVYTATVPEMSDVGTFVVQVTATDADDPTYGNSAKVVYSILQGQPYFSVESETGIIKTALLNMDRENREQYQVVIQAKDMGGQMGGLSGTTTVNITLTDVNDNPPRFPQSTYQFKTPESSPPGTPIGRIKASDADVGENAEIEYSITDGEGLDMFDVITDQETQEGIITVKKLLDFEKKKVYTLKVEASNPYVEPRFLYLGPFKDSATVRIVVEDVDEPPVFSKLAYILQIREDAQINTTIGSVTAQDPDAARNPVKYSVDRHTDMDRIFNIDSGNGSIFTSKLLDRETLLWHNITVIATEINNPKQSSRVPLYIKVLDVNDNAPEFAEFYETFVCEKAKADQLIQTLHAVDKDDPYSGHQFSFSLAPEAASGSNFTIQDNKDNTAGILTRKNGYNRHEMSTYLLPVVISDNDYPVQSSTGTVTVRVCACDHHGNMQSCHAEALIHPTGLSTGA

B1: humanized anti-CDH6 antibody H01L02A (antibody, human IgG1, kappa, L234A L235A)
heavy: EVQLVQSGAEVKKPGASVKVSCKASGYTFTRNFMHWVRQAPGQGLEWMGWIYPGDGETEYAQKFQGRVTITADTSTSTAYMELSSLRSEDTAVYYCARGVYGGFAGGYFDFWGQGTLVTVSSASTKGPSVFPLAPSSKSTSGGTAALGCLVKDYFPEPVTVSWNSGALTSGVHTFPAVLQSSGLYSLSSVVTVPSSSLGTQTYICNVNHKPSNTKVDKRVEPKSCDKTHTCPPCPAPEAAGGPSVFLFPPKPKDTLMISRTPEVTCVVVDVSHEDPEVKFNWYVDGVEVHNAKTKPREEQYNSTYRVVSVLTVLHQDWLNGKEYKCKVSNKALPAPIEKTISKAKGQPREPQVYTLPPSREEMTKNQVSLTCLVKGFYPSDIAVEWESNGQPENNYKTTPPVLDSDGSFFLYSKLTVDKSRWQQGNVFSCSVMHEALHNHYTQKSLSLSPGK
light: DIQMTQSPSSLSASVGDRVTITCKASQNIYKNLAWYQQKPGKAPKLLIYDANTLQTGVPSRFSGSGSGSDFTLTISSLQPEDFATYFCQQYYSGWAFGQGTKVEIKRTVAAPSVFIFPPSDEQLKSGTASVVCLLNNFYPREAKVQWKVDNALQSGNSQESVTEQDSKDSTYSLSSTLTLSKADYEKHKVYACEVTHQGLSSPVTKSFNRGEC
notes: hH01A heavy chain (hH01 with L234A/L235A, EU index; IgG1 LALA) and hL02 light chain; also called H01L02A antibody
B2: humanized anti-CDH6 antibody H31L02A (antibody, human IgG1, kappa, L234A L235A, V domains shown)
VH: EVQLVQSGAEVKKPGASVKVSCKASGYTFTRNFMHWVRQAPGQGLEWMGWIYPGDGETEYASKFQGRVTITADTSTSTAYMELSSLRSEDTAVYYCARGVYGGAAGGYFDFWGQGTLVTVSS
VL: DIQMTQSPSSLSASVGDRVTITCKASQNIYKNLAWYQQKPGKAPKLLIYDANTLQTGVPSRFSGSGSGSDFTLTISSLQPEDFATYFCQQYYSGWAFGQGTKVEIKR
notes: hH31A heavy chain (hH01 with the 81st glutamine changed to serine and the 123rd phenylalanine to alanine, IgG1 LALA) and hL02 light chain; also called H31L02A antibody
B3: humanized anti-CDH6 antibody H11L02A (antibody, human IgG1, kappa, L234A L235A, V domains shown)
VH: B2 VH with Y52A, S62Q, A104F
VL: B2 VL
notes: hH11A heavy chain (hH01 with the 71st tyrosine changed to alanine, IgG1 LALA) and hL02 light chain; also called H11L02A antibody

These binders were tested against T1, Recombinant Human Cadherin-6 (KCAD)/Fc … (assay: SPR (Biacore T200), antigen captured by immobilized anti-histidine antibody, antibody as analyte, steady state affinity model).
Experimental: The dissociation constant of a construct of each of H01L02A, H11L02A and H31L02A prepared in Example 7)-4 and human CDH6 was measured by using Biacore T200 (GE Healthcare Biosciences Corp.), according to a capture method, which comprises capturing the antigen as a ligand with Anti-histidine antibody immobilized by means of a His Capture Kit (manufactured by GE Healthcare Bioscience) and then measuring the dissociation constant using an antibody as an analyte. As the sensor chip, CM5 (manufactured by GE Healthcare Bioscience) was used. As the running buffer, buffer containing 20 mM Tris-HCl, 150 mM NaCl, 1 mM CaCl₂ and 0.05% Surfactant P20 (pH7.4), was used. On the chip, a 1 μg/mL Recombinant Human Cadherin-6 (KCAD)/Fc Chimera (RD-SYSTEMS) was added at a rate of 10 μL/minute for 60 seconds, and a dilution series solution (0.11 to 81 μg/mL) of the antibody prepared in Example 7)-4 was then added at a flow rate of 30 μl/min for 180 seconds. Subsequently, the dissociation phase was monitored for 180 seconds. As a regeneration solution, a Glycine 1.5 (GE Healthcare Bioscience made by the company) was added at a flow rate of 20 μl/min for 30 seconds. A Steady State Affinity model was used in data analysis, and the dissociation constant (KD) was calculated.

Kd | Binder
2.8 nM | B1
11.1 nM | B2
43.1 nM | B3
